One block for each binder: values may come before it.
How the values were obtained:
[1] = target: T1, human PAC1 (form used for the Kd determination not stated) (human, UniProt P41586 21-468, limits assumed); experiment: method not described (Table 8, 'Kd (nM)')
T1 construct: also called hPAC1
T1 sequence (looked up): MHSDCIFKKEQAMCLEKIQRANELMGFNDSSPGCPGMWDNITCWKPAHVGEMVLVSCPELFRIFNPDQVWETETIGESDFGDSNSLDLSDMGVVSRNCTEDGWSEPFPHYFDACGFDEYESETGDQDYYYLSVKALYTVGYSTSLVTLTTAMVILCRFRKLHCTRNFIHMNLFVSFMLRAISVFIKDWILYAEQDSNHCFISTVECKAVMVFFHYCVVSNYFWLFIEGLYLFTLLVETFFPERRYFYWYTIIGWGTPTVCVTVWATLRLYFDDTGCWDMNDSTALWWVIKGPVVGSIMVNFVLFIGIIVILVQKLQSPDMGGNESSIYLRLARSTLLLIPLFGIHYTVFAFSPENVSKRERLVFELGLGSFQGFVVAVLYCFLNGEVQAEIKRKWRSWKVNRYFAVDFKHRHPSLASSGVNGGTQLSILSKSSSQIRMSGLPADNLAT

[2] = target: T2, human pituitary adenylate cyclase-activating polypeptide type I receptor, endogenously expressed on SH-SY-5Y … (human, UniProt P41586 21-468); experiment: cell-based or functional assay
T2 sequence (looked up): T1 sequence (looked up)

Kd [1]: 0.024 nM | Antagonist IC50 (nM), PAC1 mediated cAMP assay (LANCE), PACAP-38 1 nM stimulation [2]: 4 nM
B1: Anti-hPAC1 antibody L (antibody, human IgG2, kappa, V domains shown)
VH: QVQLVESGGGVVQPGRSLRLSCAASGFTFSRYAMHWVRQASGKGLEWVAVISYDGSNKYYADSVKGRFTISRDNSKNTLYLLMSSLRAEDTAVFYCARGYDILTGYPDYWGQGTLVTVSS
VL: DIQLTQSPSFLSASVGDRVTITCRASQSIGRSLHWYQQKPGKAPKLLFKYASQSLSGVPSRFSGSGSGTEFTLTISSLQPEDFATYYCHQSSRLPFTFGPGTKVDIKR
notes: also called Ab ID L

Kd [1]: 0.189 nM | Antagonist IC50 (nM), PAC1 mediated cAMP assay (LANCE), PACAP-38 1 nM stimulation [2]: 28 nM
B2: Anti-hPAC1 antibody W (antibody, human IgG2, kappa, V domains shown)
VH: QVQLQESGPGLVKPSQTLSLTCTVSGGSISSGGYYWSWIRQHPGKGLEWIGYIYYSGNTYYNPSLKSRVTISGDTSKNQFSLKLRSVTAADTAVYYCTRGGAARGMDVWGQGTTVTVSS
VL: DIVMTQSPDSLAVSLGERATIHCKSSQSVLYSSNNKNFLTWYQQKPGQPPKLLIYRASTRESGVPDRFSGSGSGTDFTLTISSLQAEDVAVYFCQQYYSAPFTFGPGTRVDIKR
notes: also called Ab ID W

Reference: patent US20180094055A1 (Amgen, published 2018)
